The target of this assay is T1, staphylococcal enterotoxin B (SEB) (Staphylococcus aureus, UniProt P01552 28-266).
T1 sequence: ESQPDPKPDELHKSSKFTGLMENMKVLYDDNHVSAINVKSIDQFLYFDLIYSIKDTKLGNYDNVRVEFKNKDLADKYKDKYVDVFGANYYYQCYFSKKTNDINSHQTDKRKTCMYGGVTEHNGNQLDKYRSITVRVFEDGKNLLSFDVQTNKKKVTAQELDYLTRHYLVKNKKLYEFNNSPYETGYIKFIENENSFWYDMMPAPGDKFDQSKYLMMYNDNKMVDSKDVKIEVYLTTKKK
The assay is described as follows: SPR.

Turning to QHPQINQTLYRM [phage clone 9 (M13 phage displaying QHPQINQTLYRM)], the binding result was “binds”.

These data come from publication PMC7117543 (Biochemical and Biophysical Research Communications, 2008).
